Two molecules from article PMC2580787 (The EMBO journal, 2008) can be followed below.

The target in the test is T1, Sec24d (lacking residues 1-266) (human, UniProt O94855 267-1032).
T1 sequence (looked up): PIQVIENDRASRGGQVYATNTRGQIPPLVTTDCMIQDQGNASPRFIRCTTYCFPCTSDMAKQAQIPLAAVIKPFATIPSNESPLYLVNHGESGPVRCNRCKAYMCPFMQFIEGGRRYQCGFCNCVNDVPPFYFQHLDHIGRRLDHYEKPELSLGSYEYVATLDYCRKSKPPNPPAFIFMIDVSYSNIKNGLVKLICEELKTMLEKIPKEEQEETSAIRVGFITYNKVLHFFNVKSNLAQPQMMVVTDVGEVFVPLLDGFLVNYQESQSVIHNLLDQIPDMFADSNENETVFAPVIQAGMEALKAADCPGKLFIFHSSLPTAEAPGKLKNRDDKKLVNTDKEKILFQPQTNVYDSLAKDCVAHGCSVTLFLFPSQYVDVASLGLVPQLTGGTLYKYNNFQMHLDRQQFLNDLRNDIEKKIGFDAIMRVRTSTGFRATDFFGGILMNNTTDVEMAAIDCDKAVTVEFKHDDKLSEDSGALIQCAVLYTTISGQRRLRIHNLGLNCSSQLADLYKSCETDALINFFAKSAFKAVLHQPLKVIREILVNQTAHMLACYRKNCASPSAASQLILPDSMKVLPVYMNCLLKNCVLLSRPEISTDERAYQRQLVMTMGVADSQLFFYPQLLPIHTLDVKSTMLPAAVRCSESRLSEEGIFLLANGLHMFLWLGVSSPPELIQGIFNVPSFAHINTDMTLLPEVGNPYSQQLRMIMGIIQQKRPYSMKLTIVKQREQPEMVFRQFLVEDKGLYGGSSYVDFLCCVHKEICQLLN

On to TTIPMDE [membrin peptide 116TTIPMDE122], for which the binding result was “binds”.

In the case of DVAIDMMDP [syntaxin 5 peptide 188DVAIDMMDP196], the binding result was “binds”.
